# From patent US9061070B2, “Treating stroke and other diseases without inhibiting N-type calcium channels” (NoNO, Inc., priority 2007, dated 2015)
# Target: N-type calcium channels (Mus musculus, UniProt O55017)
# Test: Whole-cell patch clamp recordings of calcium currents in dorsal root ganglion neurons
# Format: cell-based, Swiss mice
# Details: 100 μM; FIG. 5A
# Chain of N-type calcium channels (O55017 whole entry): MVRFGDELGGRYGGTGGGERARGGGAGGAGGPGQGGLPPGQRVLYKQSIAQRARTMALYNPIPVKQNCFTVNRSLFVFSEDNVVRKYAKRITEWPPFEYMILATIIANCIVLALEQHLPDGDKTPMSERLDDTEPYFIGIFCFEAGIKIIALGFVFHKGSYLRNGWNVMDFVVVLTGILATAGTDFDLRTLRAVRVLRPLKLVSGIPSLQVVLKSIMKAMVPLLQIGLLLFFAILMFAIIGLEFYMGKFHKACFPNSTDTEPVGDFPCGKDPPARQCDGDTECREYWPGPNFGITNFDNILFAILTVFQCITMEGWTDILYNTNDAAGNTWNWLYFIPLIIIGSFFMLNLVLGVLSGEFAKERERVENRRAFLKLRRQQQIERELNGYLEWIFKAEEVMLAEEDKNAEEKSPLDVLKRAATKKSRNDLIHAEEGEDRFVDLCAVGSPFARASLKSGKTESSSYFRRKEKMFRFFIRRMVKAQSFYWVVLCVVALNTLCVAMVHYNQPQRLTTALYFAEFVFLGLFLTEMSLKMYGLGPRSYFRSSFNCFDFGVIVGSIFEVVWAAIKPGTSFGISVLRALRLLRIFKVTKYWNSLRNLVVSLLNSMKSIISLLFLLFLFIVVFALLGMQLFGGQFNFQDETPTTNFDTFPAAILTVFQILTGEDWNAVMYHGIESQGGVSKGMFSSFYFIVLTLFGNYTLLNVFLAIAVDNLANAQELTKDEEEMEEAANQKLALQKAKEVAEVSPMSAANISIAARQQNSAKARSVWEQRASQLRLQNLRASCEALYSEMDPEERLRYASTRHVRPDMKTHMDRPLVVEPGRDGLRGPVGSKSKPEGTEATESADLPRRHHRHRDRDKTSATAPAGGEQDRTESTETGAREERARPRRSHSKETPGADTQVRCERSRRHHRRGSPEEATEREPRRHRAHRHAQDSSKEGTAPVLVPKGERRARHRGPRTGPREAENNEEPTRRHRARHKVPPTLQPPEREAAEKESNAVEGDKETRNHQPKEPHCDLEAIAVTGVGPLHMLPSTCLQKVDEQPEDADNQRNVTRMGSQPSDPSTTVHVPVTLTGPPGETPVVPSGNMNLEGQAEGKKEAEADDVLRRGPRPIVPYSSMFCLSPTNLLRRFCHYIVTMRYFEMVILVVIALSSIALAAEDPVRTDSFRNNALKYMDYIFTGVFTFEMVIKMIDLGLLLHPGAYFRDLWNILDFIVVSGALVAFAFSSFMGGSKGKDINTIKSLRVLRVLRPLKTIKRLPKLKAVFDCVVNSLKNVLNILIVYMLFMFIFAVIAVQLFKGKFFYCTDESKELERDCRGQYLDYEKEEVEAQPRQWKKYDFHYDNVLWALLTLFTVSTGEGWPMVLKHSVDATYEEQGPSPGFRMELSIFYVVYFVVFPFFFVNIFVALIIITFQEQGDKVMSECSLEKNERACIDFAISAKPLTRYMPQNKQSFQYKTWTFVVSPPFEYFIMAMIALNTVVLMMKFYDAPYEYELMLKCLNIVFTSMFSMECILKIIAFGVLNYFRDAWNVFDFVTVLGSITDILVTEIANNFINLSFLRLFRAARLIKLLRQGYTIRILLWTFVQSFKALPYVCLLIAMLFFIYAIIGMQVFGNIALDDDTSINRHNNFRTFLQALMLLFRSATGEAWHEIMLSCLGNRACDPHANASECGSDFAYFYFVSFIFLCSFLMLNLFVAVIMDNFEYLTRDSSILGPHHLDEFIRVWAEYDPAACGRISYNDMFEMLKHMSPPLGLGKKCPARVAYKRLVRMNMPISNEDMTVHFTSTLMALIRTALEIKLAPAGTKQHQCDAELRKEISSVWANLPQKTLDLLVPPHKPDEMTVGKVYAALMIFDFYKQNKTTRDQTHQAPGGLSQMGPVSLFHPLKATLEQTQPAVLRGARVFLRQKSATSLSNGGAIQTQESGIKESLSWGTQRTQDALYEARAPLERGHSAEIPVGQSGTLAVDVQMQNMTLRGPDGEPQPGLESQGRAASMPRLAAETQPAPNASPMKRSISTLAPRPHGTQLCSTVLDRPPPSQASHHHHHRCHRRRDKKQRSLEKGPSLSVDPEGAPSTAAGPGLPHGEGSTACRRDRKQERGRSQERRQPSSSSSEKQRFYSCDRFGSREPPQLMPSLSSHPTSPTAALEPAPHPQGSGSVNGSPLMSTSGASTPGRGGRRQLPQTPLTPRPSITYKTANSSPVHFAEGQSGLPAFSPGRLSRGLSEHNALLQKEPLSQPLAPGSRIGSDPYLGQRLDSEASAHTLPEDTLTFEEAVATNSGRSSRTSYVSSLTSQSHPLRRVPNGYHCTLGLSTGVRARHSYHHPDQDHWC
# Chain of N-type calcium channels (O08532 25-956 partner limits assumed): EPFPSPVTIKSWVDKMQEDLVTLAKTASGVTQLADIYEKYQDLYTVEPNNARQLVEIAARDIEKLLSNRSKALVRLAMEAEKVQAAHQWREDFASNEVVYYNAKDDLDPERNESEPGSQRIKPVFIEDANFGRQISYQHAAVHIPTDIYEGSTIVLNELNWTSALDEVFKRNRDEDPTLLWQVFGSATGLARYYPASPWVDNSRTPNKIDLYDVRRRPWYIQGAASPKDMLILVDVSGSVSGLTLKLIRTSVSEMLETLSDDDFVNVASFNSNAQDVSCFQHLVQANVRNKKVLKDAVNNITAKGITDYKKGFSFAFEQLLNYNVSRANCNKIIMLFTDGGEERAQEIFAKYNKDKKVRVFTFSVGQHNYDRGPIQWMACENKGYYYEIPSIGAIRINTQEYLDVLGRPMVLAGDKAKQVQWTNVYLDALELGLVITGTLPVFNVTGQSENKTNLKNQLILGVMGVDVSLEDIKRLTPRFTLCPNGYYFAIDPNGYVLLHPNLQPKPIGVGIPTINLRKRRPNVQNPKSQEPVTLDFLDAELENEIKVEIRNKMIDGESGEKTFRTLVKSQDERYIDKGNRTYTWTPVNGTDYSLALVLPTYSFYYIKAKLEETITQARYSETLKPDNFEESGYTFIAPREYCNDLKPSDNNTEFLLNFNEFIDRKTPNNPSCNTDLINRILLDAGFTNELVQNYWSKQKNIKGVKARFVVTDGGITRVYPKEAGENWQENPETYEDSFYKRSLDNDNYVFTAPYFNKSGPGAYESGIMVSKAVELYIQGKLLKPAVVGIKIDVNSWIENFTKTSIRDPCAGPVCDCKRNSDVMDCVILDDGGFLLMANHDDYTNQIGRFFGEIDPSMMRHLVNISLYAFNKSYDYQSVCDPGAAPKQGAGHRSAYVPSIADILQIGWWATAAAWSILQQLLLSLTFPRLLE
# Chain of N-type calcium channels (O08532 957-1103 partner limits assumed): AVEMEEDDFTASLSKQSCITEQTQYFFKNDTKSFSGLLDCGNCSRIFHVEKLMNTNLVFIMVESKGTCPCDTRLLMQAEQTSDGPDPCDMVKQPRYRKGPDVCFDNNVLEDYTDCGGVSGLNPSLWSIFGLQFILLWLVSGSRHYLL
# Chain of N-type calcium channels (P54285 whole entry partner): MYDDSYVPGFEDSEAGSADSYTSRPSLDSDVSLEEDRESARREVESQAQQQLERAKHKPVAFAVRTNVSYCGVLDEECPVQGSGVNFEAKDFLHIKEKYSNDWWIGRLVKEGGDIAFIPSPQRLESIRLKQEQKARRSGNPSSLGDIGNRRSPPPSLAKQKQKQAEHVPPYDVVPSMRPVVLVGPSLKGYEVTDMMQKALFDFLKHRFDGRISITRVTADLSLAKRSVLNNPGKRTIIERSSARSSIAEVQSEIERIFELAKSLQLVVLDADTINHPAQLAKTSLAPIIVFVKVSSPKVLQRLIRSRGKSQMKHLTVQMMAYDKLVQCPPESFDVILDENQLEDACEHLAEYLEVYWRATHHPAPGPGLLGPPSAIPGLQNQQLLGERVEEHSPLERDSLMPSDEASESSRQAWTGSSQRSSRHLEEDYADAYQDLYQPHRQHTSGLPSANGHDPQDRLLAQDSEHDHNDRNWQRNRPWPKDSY
sequence,measurement,value
"YGRKKRRQRRRKLSSIESDV [Tat-NR2B9c, reference compound]",additional inhibition once N-channels are blocked by omega conotoxin (1 μM),no additional inhibition
